From patent US20250195685A1 (CAPSTAN THERAPEUTICS, published 2025)

Key:
[1] = molecular target: T1, human CD8αα homodimer, recombinant protein (Acro Biosystems) (human, UniProt P01732 22-182); experiment: BLI steady state, whole hIgG1-LALAPA antibody on CD8α-His (Ni-NTA sensor), 30 °C
T1 construct: also called CD8αα antigen; biotinylated CD8α recombinant protein (CDA-H82E3)

[2] = molecular target: T1, human CD8αα homodimer, recombinant …; experiment: BLI binding kinetic analysis, whole antibody, sample kept at pH 7.2, 4C (unstressed)
[3] = molecular target: T2, human CD8 on cells (CD8-overexpressing HEK293T cells, SupT1, HPB-ALL, human T cells, transfected HEK293 of … (human, UniProt P01732 22-235)); experiment: flow cytometry on CD8-overexpressing HEK293T cells, non-linear fit of normalized gMFI
T2 construct: whole, on cells; also called cell surface CD8
T2 sequence (P01732 22-235): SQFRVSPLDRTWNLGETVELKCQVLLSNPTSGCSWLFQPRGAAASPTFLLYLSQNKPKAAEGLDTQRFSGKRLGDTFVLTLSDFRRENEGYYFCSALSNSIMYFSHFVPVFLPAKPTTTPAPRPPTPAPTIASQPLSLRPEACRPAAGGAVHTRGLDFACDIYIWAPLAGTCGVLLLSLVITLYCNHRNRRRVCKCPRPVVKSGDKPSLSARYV

[4] = molecular target: T1, human CD8αα homodimer, recombinant …; experiment: BLI binding kinetic analysis, whole antibody, sample stressed at pH 8.5, 40 °C, 7 days
[5] = molecular target: T2, human CD8 on cells (CD8-overexpressing …); experiment: flow cytometry, Human Expanded T cells Donor 6, gated on live CD8 T cells (via CD3+CD4-)
Description: (§1) To obtain the results shown in FIG. 8A and FIG. 8B, 5×10⁴ expanded primary T cells (human, cynomolgus macaque or rhesus monkey) were thawed and transferred to a V bottom 96-well culture plate (Corning). Cells were washed twice with Cell Staining buffer (#420201, Biolegend). Each anti-CD8α antibody was diluted in four-fold antibody titration series from 60 μg/mL to 0.057 ng/mL into Cell Staining buffer. Cells were stained with each diluted antibody solution for 30 minutes on ice. Cells were then washed three times with Cell Staining buffer and primary antibody binding was detected by staining with anti-human Fc BV421 conjugate antibody (#410704, Biolegend) at 1:200 dilution for 30 minutes on ice. […] Flow cytometry data was analyzed by Flowjo 10 (Becton, Dickinson & Company) to measure the geometric median fluorescence intensity (gMFI) of the on-cell binding from each antibody. The gMFI values were normalized with the gMFI measured in the sample stained with only the secondary detection antibody and plotted against the concentration of the added antibodies. The binding curves were constructed using Graphpad Prism software, and EC₅₀ values were determined by non-linear curve fitting.

[6] = molecular target: T3, cynomolgus macaque CD8 on expanded primary T cells (cynomolgus macaque); experiment: flow cytometry, Cyno Expanded T cells Donor 9, gated on CD4- T cells, anti-human Fc BV421
T3 construct: also called CD4- CD8+ cynomolgus macaque T cells
Description: Binding was measured by fluorescence from the BV421 fluorophore-conjugated anti-human Fc secondary antibody that recognize the binders. The gMFI was normalized to the gMFI of the secondary antibody in the absence of the anti-CD8α binders.
as §1, with “Cells were stained with each diluted antibody solution for 30 minutes on ice.” left out

[7] = molecular target: T3, cynomolgus macaque CD8 on expanded …; experiment: flow cytometry, Cyno Expanded T cells Donor 10, gated on live CD8 T cells (via CD3+CD4-)
Description: as §1

[8] = molecular target: T4, rhesus macaque CD8 on expanded primary T cells (rhesus macaque); experiment: flow cytometry, Rhesus Expanded T cells Donor 9, gated on live CD8 T cells (via CD3+CD4-)
T4 construct: also called CD4- CD8+ rhesus T cells
Description: as §1

T1 sequence (P01732 22-182 limits assumed): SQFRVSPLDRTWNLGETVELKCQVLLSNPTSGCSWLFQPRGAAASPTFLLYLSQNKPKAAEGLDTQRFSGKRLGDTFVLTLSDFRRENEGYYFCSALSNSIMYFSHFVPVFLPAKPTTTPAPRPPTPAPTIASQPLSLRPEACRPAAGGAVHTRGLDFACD

Row | Binder | Kd [1] [nM] | Kd [2] [nM] | koff [2] [s⁻¹] | kon [2] [M⁻¹ s⁻¹] | EC50 [3] [nM] | Kd [4] [nM] | koff [4] [s⁻¹] | kon [4] [M⁻¹ s⁻¹] | EC50 [5] [nM] | EC50 (read off the curve) [6] [µg/mL] | EC50 [7] [µg/mL] | EC50 [8] [µg/mL]
1 | CBD1033 whole antibody, human IgG1 with Fc-silencing mutations L234A, L235A and P329A (CBD1033-hIgG1-LALAPA) (antibody, V domains shown, On tLNPs the antibody was SATA-modified or AJICAP-thiolated (CBD1033.29) and conjugated to the LNP; also called CBD1033.3; CBD1033 IgG1) VH: QVQLVQSGAEVKKPGASVKVSCKASRYTFTDYNLHWVRQAPGQGLEWMGFIYPYNGGTGYAQKFQGRVTMTVDTSTSTAYMELSSLRSEDTAVYYCARDHRYNEGVSFDYWGQGTTVTVSS VL: DIQLTQSPSSLSASVGDRATITCRASESVDGFGNSFMNWYQQKPGKAPKLLIYLASNLESGVPSRFSGSGSGTDFTLTISSVQPEDFATYYCQQNNEDPYTFGQGTKLEIKR | 2.27 | 1.66 | 0.00308 | 1.85e+06 | 2.78 | 2.19 | 0.00309 | 1.41e+06 | 0.767 | ~0.2 | 0.169 | 0.145
2 | CBD1017ch whole antibody (chimeric CT8 antibody) (antibody, V domains shown, Chimeric antibody comprising the variable regions of the donor antibody CT8; detected with anti-human Fc) VH: EVQLQQSGPELVKPGASVKISCKASRYTFTDYNLHWVKLSHEKSLEWIGFIYPYNGGTGYNQKFKNKAKLTVDYSSSTAYMELRSLTSVDAAVYYCARDHRYNEGVSFDYWGQGTTLTVSS VL: NIVLTQSPASLAVSLGQRATISCRASESVDGFGNSFMNWYQQKPGQSPKLLIYLASNLESGVPARFSGSGSRTDFTLTIDPVEADDAATYYCQQNNEDPYTFGGGTKLEIK | 0.58 | 0.43 | 0.000655 | 1.53e+06 | 2.75 | 0.55 | 0.000795 | 1.45e+06 | 0.356 | ~0.06 | 0.057 | 0.045
